Laboratory results taken from patent publication US20260015631.

Test system: CyCAST TnsD (with TnsAB, TnsC) (Cyanothece sp. PCC 7425)
Test: cell_activity
Conditions: without TniQ; 0.0006% with TniQ; E. coli

pTarget with tRNA-Leu
activity: 0.008 % insertion
